From patent US20260098866A1 (REMEGEN, published 2026)

B1: antibody 1B11D2 (antibody, mouse IgG1, kappa, V domains shown)
VH: EVQLQQSGPELVKPGASVKISCKTSGYTFTEFSMHWVQQSHGKSLEWIGGINPNHGGSSYNQKFKGKATLTVDKSSSTAYMELRSLTSEDSAVYYCARRGDYYGNLYYAMDYWGQGTSVTVSS
VL: SIVMTQTPKFLLVSVGDSITITCKASQSVSNDVVWYQQKPGQSPKLLIYYASNRYTGVPDRFTGSGYGTDFTFTITTVQAEDLAVYFCQQDYSSPWAFGGGTKLEIKR
notes: Mouse hybridoma antibody, purified from the culture supernatant of cell line 1B11D2-1; The printed heavy and light chains start with what looks like a leader peptide (MGWSW..., MKSQT...); also called 1B11D2-1 (hybridoma cell line / culture supernatant); TACI antibody (1B11D2)
B2: antibody 12C9F3 (antibody, mouse IgG1, kappa, V domains shown)
VH: EVQLQQSGPELVKPGASVKISCKTSGYTFTEYAMHWVKQSHGKSLEWIGGINPNHGGTSNNQKFKGKATLTVDKSSSTAYMDFRSLTSEDSAVYYCARWGTDPFFAYWGQGTLVTVSA
VL: DIVMTQSHKFMSTSVGDRVSITCKASQDVSTAVAWYQQKPGQSPKLLIYWASTRHTGVPDRFTGSGSGTDYTLTITSVQAEDLTLYYCHQHYAPPWTFGGGTKLEIKR
notes: Mouse hybridoma antibody, purified from the culture supernatant of cell line 12C9F3-1; The printed chains seem to include a leader peptide, but no cleavage site is stated; also called 12C9F3-1 (hybridoma cell line / culture supernatant)
B3: antibody 7G12F8 (antibody, mouse IgG1, kappa, V domains shown)
VH: EVQLQQSGPELVRPGASVKKSCKTSGYTFTAYALHWVKQSHGTSLEWIGGINPNHGGVSYNQKFKDKATLTVDKSSSTAYMELRSLTSEDSAVYYCARFRWDLYYGMDYWGQGTSVIVAS
VL: QIVLTQSPAIISVSSGEKVTMPCSDNSNMIYMYWNLWKPGTSPKRWIYDTSRLASGVPARFSGSGFGTSFSLTVSSMEAEDAATYYCHQRSIYSWTFGGGTKLEIKR
notes: Mouse hybridoma antibody, purified from the culture supernatant of cell line 7G12F8-1; The printed chains seem to include a leader peptide, but no cleavage site is stated; also called 7G12F8-1 (hybridoma cell line / culture supernatant)

What was measured:
telitacicept [1] = target: T1, telitacicept; test: BLI (Octet RH16); biotinylated 1B11D2 on SA biosensors, telitacicept as analyte; kinetic fit
T1 construct: TACI-Fc fusion protein drug; also called Tai ai; TACI-Fc fusion protein
T1 chain: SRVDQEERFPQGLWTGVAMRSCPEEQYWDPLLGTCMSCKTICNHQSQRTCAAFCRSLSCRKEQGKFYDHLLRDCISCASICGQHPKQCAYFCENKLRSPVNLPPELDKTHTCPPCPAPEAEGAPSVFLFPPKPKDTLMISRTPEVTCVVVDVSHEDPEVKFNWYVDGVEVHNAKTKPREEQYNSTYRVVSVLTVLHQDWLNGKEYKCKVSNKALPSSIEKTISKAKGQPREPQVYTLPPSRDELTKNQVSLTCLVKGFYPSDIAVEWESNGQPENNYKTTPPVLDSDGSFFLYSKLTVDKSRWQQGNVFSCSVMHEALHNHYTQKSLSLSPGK
Experimental: An Octet RH16 molecular interaction analyzer (Sartorius) was used. An appropriate amount of antibody 1B11D2 reacted with EZ-Link Sulfo-NHS-LC-LC-Biotin ([…]) at room temperature for 30 min followed by centrifugation with a Zeba spin desalting column to collect the biotinylated antibody 1B11D2.
The biotinylated antibody 1B11D2 was immobilized on Octet SA Biosensors ([…]) and telitacicept at various concentrations was used as the analyte. The detection curve was fitted by kinetic analysis to obtain the results.

telitacicept [2] = target: T1, telitacicept; test: competition ELISA; BLyS coated; 30 ng/ml telitacicept pre-incubated with 10-fold diluted supernatant; telitacicept bound to BLyS read with anti-human IgG Fc-HRP
Experimental: (§1) The hybridoma cells were cultured, and the supernatants were used for enzyme-linked immunosorbent assay (ELISA). BLyS (R&D Systems) was coated on a 96-well microplate and incubated at 4° C. overnight. The plate was blocked with 300 μl of 3% BSA-PBST per well and incubated at 37° C. for 3 h. The supernatants were diluted at ratios of 10-fold, 100-fold and 1000-fold with PBST and separately incubated with 30 ng/ml telitacicept for a given period. These mixtures were then added to the 96-well plate at 100 μl per well and incubated at 37° C. for 1 h. Goat anti-human IgG Fc-HRP (1:5000 dilution) was added at 100 μl per well and incubated at 37° C. for 1 h. 100 μL of substrate per well was added for color development, and the absorbance was read at 450 nm and 655 nm. Antibodies with high activity were screened based on the difference in absorbance between 450 nm and 655 nm, respectively.

telitacicept [3] = target: T1, telitacicept; test: competition ELISA; BLyS coated; 30 ng/ml telitacicept pre-incubated with 100-fold diluted supernatant; telitacicept bound to BLyS read with anti-human IgG Fc-HRP
Experimental: as §1

telitacicept [4] = target: T1, telitacicept; test: competition ELISA; BLyS coated; 30 ng/ml telitacicept pre-incubated with 1000-fold diluted supernatant; telitacicept bound to BLyS read with anti-human IgG Fc-HRP
Experimental: as §1

Row | Binder | Kd (telitacicept [1]) [nM] | koff (telitacicept [1]) [s⁻¹] | kon (telitacicept [1]) [M⁻¹ s⁻¹] | Absorbance (450 nm - 655 nm) (telitacicept [2]) | Absorbance (450 nm - 655 nm) (telitacicept [3]) | Absorbance (450 nm - 655 nm) (telitacicept [4])
1 | B1 | 0.325 | 0.000105 | 323000 | 0.016 | 0.141 | 0.454
2 | B2 |  |  |  | 0.082 | 0.242 | 0.443
3 | B3 |  |  |  | 0.057 | 0.215 | 0.448
